This experiment addresses OT-I T cell receptor on OTi target T cells (splenocytes from OT-I mouse) (mouse). Kind of experiment: cell-based or functional assay.

We go through one substance from patent US20240139242A1.

Turning to “FITC-conjugated H2Kb-SIINFEKL tetramer (from UniProt P01901 22-305) (peptide-MHC)”, the cytotoxicity of CD8 CAR T cells on OTi cells is > 50%.
